Consider four molecules from publication PMC4381075, “An intrinsically disordered region of methyl-CpG binding domain protein 2 (MBD2) recruits the histone deacetylase core of the NuRD complex”.

The target of data set [1] is MBD2FLsc (human) (UniProt Q9UBB5). As to the kind of experiment: SPR. As to conditions: 5-methyl-C at position 9 of strand 1 (central CpG), complement mC at position 8 implied, not given, SPR: 10 mM HEPES pH 7.4, 50 mM NaCl, 3 mM MgCl2, 0.1 mM EDTA, 1 mM DTT, 0.05% polysorbate 20, FP: 10 mM HEPES pH 7.5, 50 or 150 mM NaCl.
MBD2FLsc (human), sequence (Q9UBB5 whole entry): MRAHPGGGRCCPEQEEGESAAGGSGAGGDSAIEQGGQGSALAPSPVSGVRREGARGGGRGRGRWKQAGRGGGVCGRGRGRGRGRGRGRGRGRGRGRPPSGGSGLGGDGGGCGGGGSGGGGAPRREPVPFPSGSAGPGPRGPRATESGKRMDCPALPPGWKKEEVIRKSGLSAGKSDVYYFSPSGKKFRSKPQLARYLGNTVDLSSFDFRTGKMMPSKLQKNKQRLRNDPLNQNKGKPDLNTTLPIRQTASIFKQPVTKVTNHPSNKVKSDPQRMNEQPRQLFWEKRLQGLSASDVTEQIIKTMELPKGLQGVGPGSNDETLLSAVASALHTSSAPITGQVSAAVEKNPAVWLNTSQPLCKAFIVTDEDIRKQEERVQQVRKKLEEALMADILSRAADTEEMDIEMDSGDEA
For data set [2] the target is unchanged. As to the kind of experiment: fluorescence polarization. As to conditions: 5-methyl-C at position 9 of strand 1 (central CpG), complement mC at position 8 implied, not given, SPR: 10 mM HEPES pH 7.4, 50 mM NaCl, 3 mM MgCl2, 0.1 mM EDTA, 1 mM DTT, 0.05% polysorbate 20, FP: 10 mM HEPES pH 7.5, 50 or 150 mM NaCl.
The target of data set [3] is T1, MBD2(150-260) (human, UniProt Q9UBB5 150-260). Kind of data set: fluorescence polarization; 50 mM NaCl; SPR: 10 mM HEPES pH 7.4, 50 mM NaCl, 3 mM MgCl2, 0.1 mM EDTA, 1 mM DTT, 0.05% polysorbate 20; FP: 10 mM HEPES pH 7.5, 50 or 150 mM NaCl, 3 mM MgCl2, 0.1 mM EDTA, 1 mM DTT, 0.02% azide; temperature not stated. As to conditions: protein: recombinant; tags: thioredoxin-His fusion (modified pET32a; tag retained); label: 3' FAM on reverse strand; blunt. (In general: Fluorescence polarisation rises when a labelled molecule tumbles more slowly, as on binding a larger partner.)
T1 sequence (Q9UBB5 150-260): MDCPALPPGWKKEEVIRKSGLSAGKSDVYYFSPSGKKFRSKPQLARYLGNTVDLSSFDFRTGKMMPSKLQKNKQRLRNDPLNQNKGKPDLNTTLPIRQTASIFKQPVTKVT

In data set [4] the target is T2, MBD2MBD (human, UniProt Q9UBB5 150-214). Described as above. The conditions noted are these: protein: recombinant; tags: thioredoxin-His fusion (modified pET32a; tag retained); label: 3' FAM on reverse strand; blunt.
T2 sequence (Q9UBB5 150-214): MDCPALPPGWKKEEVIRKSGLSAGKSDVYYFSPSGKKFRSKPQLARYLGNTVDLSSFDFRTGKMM
For data set [5], the target named is T1, MBD2(150-260). As to the kind of experiment: SPR; 50 mM NaCl, 3 mM Mg2+; SPR: 10 mM HEPES pH 7.4, 50 mM NaCl, 3 mM MgCl2, 0.1 mM EDTA, 1 mM DTT, 0.05% polysorbate 20; FP: 10 mM HEPES pH 7.5, 50 or 150 mM NaCl, 3 mM MgCl2, 0.1 mM EDTA, 1 mM DTT, 0.02% azide; temperature not stated. The conditions noted are these: protein: recombinant; tags: thioredoxin-His fusion (modified pET32a; tag retained); label: 3' biotin on forward strand; blunt. (In general: In SPR one partner is held on a chip, and binding of the other changes the refractive index at the surface.)

Data set [6] concerns the target T2, MBD2MBD. As to the kind of experiment: SPR steady state; 50 mM NaCl, 3 mM Mg2+; SPR: 10 mM HEPES pH 7.4, 50 mM NaCl, 3 mM MgCl2, 0.1 mM EDTA, 1 mM DTT, 0.05% polysorbate 20; FP: 10 mM HEPES pH 7.5, 50 or 150 mM NaCl, 3 mM MgCl2, 0.1 mM EDTA, 1 mM DTT, 0.02% azide; temperature not stated. The conditions noted are these: protein: recombinant; tags: thioredoxin-His fusion (modified pET32a; tag retained); label: 3' biotin on forward strand; blunt.

The term Kd denotes the free concentration of one partner at which half of the binding sites on the other are occupied at equilibrium, for simple one-to-one binding.

In the data set with MBD2FLsc (human) [1], “GAGGCGCTCGGCGGCAG (double strand) [17 bp central mCpG, SPR]” came in with a Kd of 2 nM. Regarding “GAGGCGCTCGGCGGCAG (double strand) [17 bp central mCpG, FP]”, in the data set with MBD2FLsc (human) [2], the binding signal (fold affinity vs 50 mM NaCl) came out at 0.1 and the binding signal (fold affinity vs MBD2MBD) worked out at 100.

B1: 17 bp central mCpG, FP (dsDNA)
DNA 1: GAGGCGCTCGGCGGCAG
DNA 2: CTGCCGCCGAGCGCCTC
modifications: 5-methyl-C at position 9 of strand 1 (central CpG); complement mC at position 8 implied, not given
On to B1, for which the binding signal in the data set with MBD2(150-260) [3] is approximately 100 fold affinity vs MBD2MBD; with MBD2MBD [4], ~1 fold affinity (reference).

B2: 17 bp central mCpG, SPR (dsDNA)
DNA 1: GAGGCGCTCGGCGGCAG
DNA 2: CTGCCGCCGAGCGCCTC
modifications: 5-methyl-C at position 9 of strand 1 (central CpG); complement mC at position 8 implied, not given
For the molecule B2, the equilibrium dissociation constant (Kd) in the data set with MBD2(150-260) [5] worked out at 20 nM; in the data set with MBD2MBD [6], 330 nM.
